Results as given in PMC3315798 (Molecular Biology of the Cell, 2012).

T1: Fus2p-FLAG (full-length Fus2p, internally FLAG-epitope tagged at residue 104) (S. cerevisiae, UniProt Q05670 1-677)
T1 sequence (looked up): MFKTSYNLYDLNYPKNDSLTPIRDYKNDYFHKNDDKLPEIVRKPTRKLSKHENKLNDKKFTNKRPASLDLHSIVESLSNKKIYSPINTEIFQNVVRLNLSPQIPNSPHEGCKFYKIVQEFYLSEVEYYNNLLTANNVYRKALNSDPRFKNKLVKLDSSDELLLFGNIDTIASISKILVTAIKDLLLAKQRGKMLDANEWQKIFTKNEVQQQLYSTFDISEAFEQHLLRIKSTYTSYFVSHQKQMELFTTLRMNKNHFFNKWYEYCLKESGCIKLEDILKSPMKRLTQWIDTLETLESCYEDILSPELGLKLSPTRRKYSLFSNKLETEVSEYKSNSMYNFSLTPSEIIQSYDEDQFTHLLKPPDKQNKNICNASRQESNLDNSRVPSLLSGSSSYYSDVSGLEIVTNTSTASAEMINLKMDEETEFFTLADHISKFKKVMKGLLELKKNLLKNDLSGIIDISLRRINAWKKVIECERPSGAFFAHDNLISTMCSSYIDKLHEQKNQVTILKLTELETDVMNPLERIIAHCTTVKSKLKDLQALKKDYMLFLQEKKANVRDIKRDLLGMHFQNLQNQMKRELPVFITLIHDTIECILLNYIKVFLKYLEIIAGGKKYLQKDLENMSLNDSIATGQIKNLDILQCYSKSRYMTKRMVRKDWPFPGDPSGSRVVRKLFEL


Biological target: T1, Fus2p-FLAG (full-length Fus2p, …)
Assay: co-IP

Binder | % binding relative to wild-type Cdc42p (so in the source) | fold level bound compared with Cdc42p-T17N or wild type
GST-Cdc42p (Q61L, D122A) (natural protein) not shown | 4% | –
GST-Cdc42p (V36M, Q61L) (natural protein) not shown | 7% | –
GST-Cdc42p-Q61L (GTP-locked mutant) (natural protein) not shown | – | ~20 fold
